{"source": "patent US20060105951A1", "key": {"[1]": {"target": "melanocortin 4 receptor (MC4R) (Homo sapiens) (UniProt P32245)", "sequence (P32245 whole entry V103I)": "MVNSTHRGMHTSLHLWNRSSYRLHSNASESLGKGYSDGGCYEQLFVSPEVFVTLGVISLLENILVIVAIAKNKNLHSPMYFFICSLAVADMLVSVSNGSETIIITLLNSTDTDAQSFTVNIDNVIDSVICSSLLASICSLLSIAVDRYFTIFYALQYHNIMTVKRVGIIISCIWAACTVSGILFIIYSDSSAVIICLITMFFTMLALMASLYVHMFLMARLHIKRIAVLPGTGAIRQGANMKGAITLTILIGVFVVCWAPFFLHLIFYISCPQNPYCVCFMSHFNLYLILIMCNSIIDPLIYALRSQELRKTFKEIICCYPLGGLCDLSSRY", "test": "competitive binding assay (range of obtained IC50 values); competitor [125I]-NDP-alpha-MSH"}, "[2]": {"target": "melanocortin 4 receptor (MC4R) (Homo sapiens) (UniProt P32245)", "test": "cell-based or functional assay"}}}
{"substance": "melanotan II (MTII) (peptide)", "values": [{"measurement": "IC50", "setting": "[1]", "result": "5 to 30", "unit": "nM"}, {"measurement": "EC50, cAMP production, CHOK1 Clone 1 (high MC4R expression)", "setting": "[2]", "result": 0.52, "unit": "nM"}, {"measurement": "EC50, cAMP production, CHOK1 Clone 2 (low MC4R expression)", "setting": "[2]", "result": 0.52, "unit": "nM"}]}
